According to PMC11116469:

Legend:
[1] = biological target: FUS 6F-G variant (Phe residues of the RBD substituted to Gly) (UniProt P35637); assay: DLS; details: 10 µM FUS (RBD, F/Y-G/S), read off a plot
[2] = biological target: FUS 6Y-S variant (Tyr residues of the RBD substituted to Ser) (UniProt P35637); assay: DLS; details: 10 µM FUS (RBD, F/Y-G/S), read off a plot
[3] = biological target: FUS (10D/4E-G) variant (10 Asp and 4 Glu of the RBD substituted to Gly) (UniProt P35637); assay: DLS; details: 250 nM FUS (RBD, D/E-G), read off a plot
[4] = biological target: FUS(Y-S) with 10 Tyr of the PLCD substituted to Ser (UniProt P35637); assay: DLS; details: 10 µM FUS (PLD, Y-S), read off a plot
[5] = biological target: FUS(Y-S) with 18 Tyr of the PLCD substituted to Ser (UniProt P35637); assay: DLS; details: 10 µM FUS (PLD, Y-S), read off a plot
[6] = biological target: FUS(R-G) with 24 Arg of the RBD substituted to Gly (UniProt P35637); assay: DLS; details: 10 µM FUS (RBD, R-G), read off a plot
[7] = biological target: FUS(R-K) with 24 Arg of the RBD substituted to Lys (UniProt P35637); assay: DLS; details: read off a plot
[8] = biological target: FUS(Y-S) with 27 Tyr of the PLCD substituted to Ser (UniProt P35637); assay: DLS; details: 10 µM FUS (PLD, Y-S), read off a plot
[9] = biological target: T1, SNAP-tagged FUS (Fused in Sarcoma), P35637; assay: nanoparticle tracking analysis (NTA); sub-saturated solutions of one protein in 100 mM KCl and 100 mM KGlu, 25 °C, recorded 6 min after preparation; abundance of mesoscale clusters; details: remark: other sources report otherwise
T1 chain: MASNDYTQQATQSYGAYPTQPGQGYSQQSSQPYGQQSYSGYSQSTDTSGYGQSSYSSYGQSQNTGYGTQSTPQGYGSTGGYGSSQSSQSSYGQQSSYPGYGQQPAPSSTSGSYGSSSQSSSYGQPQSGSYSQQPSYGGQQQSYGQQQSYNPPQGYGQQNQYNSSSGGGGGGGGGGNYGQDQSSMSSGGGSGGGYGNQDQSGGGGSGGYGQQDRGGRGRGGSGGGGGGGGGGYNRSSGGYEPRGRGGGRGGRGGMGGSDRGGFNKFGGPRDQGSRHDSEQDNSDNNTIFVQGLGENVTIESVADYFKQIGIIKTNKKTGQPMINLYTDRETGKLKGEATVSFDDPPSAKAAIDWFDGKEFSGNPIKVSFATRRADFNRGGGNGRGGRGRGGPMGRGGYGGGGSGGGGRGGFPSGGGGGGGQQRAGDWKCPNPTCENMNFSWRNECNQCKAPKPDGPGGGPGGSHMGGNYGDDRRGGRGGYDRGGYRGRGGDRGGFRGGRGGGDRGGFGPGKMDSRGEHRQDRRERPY

wild-type FUS 6F-G
response ([1]; KCl buffer): 1.2 Mcps | response ([1]; KGlu buffer): 1.7 Mcps

wild-type FUS 6Y-S
response ([2]; KCl buffer): 0.49 Mcps | response ([2]; KGlu buffer): 1.4 Mcps

wild-type FUS 10D/4E-G
response ([3]; KCl buffer): 3.2 Mcps | response ([3]; KGlu buffer): 3.8 Mcps

wild-type FUS 10Y-S
response ([4]; KCl buffer): 0.81 Mcps | response ([4]; KGlu buffer): 1.9 Mcps

wild-type FUS 18Y-S
response ([5]; KCl buffer): 0.79 Mcps | response ([5]; KGlu buffer): 1.3 Mcps

wild-type FUS 24R-G
response ([6]; KCl buffer): 1.2 Mcps | response ([6]; KGlu buffer): 1.8 Mcps

wild-type FUS 24R-K
response ([7]; 1 µM FUS (24R-K), KCl buffer): 0.13 Mcps | response ([7]; 1 µM FUS (24R-K), KGlu buffer): 1.9 Mcps | response ([7]; 2 µM FUS (24R-K), KCl buffer): 0.32 Mcps | response ([7]; 2 µM FUS (24R-K), KGlu buffer): 2.4 Mcps | response ([7]; 3 µM FUS (24R-K), KCl buffer): 1.1 Mcps | response ([7]; 3 µM FUS (24R-K), KGlu buffer): 3.8 Mcps | response ([7]; 4 µM FUS (24R-K), KCl buffer): 1.4 Mcps | response ([7]; 4 µM FUS (24R-K), KGlu buffer): 3.9 Mcps

wild-type FUS 27Y-S
response ([8]; KCl buffer): 0.74 Mcps | response ([8]; KGlu buffer): 0.86 Mcps

B1: SNAP-tagged FUS (Fused in Sarcoma), P35637 1-526 (natural protein)
chain: T1 chain
modifications: here or on the partner: AF488 or AF647 label on the copies used in smFRET and FCS (FUS-SNAP-AF488, FUS-SNAP-AF647); unlabelled in DLS and NTA; AF488 or AF647 label on the copies used in smFRET and FCS (FUS-SNAP-AF488, FUS-SNAP-AF647); unlabelled in DLS and NTA
relative abundance of mesoscale clusters (100 mM KCl) [9]: 0.2 to 0.4%
